From patent publication US20220380768A1 (TALLAC THERAPEUTICS, published 2022)
Substitutions are numbered along the chain they refer to.

B1: TNT71 (antibody, human IgG1, kappa, V domains shown)
VH: EVQLVESGGGLVQPGGSLRLSCAASGFTFSSYEMNWVRQAPGKGLEWVSYISSSGSTIYYADSVKGRFTISRDNAKNSLYLQMNSLRAEDTAVYYCARHSGYGTHWGVLFAYWGRGTLVTVSS
VL: DIQMTQSPSSLSASVGDRVTITCRASQDIHGYLNWYQQKPGKAPKLLIYYTSILHSGVPSRFSGSGSGTDFTLTISSLQPEDFATYFCQQGNTLPWTFGQGTKLEIKR
B2: TNT75 (antibody, human IgG1, kappa, V domains shown)
VH: B1 VH
VL: B1 VL with L11V, N34A, I53S, H55Q, F87Y
B3: TNT82 (antibody, human IgG1, kappa, V domains shown)
VH: B1 VH with E1Q, V5L, L11V, T28A, S31I, E33D, Y50A, S54G, S56G, I58T
VL: EIVLTQSPATLSLSPGERATLSCRASQDIHGYLNWYQQKPGQAPRLLIYYTSILHSGIPARFSGSGPGTDFTLTISSLEPEDFAVYYCQQGNTLPWTFGGGTKLEIKR
B4: TNT83 (antibody, human IgG1, kappa, V domains shown)
VH: B1 VH
VL: B3 VL
B5: TNT72 (antibody, human IgG1, kappa, V domains shown)
VH: QVQLQESGPGLVKPSDTLSLTCTVSGFAFSIYDMSWIRQPPGKGLEWIAYISSGGGTTYYNPSLKSRVTISVDTSKNQFSLKLSSVTAADTAVYYCARHSGYGTHWGVLFAYWGRGTLVTVSS
VL: B1 VL
B6: TNT88 (antibody, human IgG1, kappa, V domains shown)
VH: B5 VH
VL: DIVMTQTPLSLSVTPGQPASISCRASQDIHGYLNWYQQKPGQSPQLLIYYTSILHSGVPDRFSGSGSGTDFTLKISRVEAEDVGVYFCQQGNTLPWTFGGGTKLEIKR
B7: TNT77 (antibody, human IgG1, kappa, V domains shown)
VH: EVQLVESGGGLVQPGGSLRLSCAASGFAFSIYDMSWVRQAPGKGLEWVAYISSGGGTTYYPDTVKGRFTISRDNSKNTLYLQMNSLRAEDTAVYYCARHSGYGTHWGVLFAYWGRGTLVTVSS
VL: B1 VL with D28S, H30S, G31S, Y50A, T51A, I53S, H55Q, F87Y

Key:
[1] = biological target: T1, human CD22 (d1 to d7 domain according to NP_001762.2) (human, UniProt P20273 20-687); assay: SPR; summary table, column 'CD22 KD (nM)'
T1 construct: domain: d1 to d7 domain; also called human CD22-gly; Siglec-2

[2] = biological target: T2, human CD22 on B cells of human PBMCs (human, UniProt P20273 20-847); assay: flow cytometry; Alexa Fluor 647-labelled antibody on CD20+ B cells of human PBMCs
T2 construct: whole, on cells; also called CD22 on human B cells
Procedure: (§1) Binding of humanized anti-CD22 antibodies to human or cynomolgus PBMCs was measured by flow cytometry. Trima residuals were received from Vitalant and cynomolgus monkey whole blood were received from BioIVT. Both were diluted 1:4 with Phosphate Buffered Saline (PBS, Gibco). Diluted blood was split into two tubes and underplayed with 15 mL Ficoll-Paque (GE Healthcare). Tubes were centrifuged for 30 minutes at 400×g. PBMCs were collected from the interface, washed and resuspended in FACS buffer (PBS with 0.5% Bovine Serum Albumin (Gibco)). 100K PBMCs from human and cynomolgus monkey were plated in 96-well plates and pelleted by centrifugation for five minutes at 400×g and stained at 4° C. in 100 μl Fixable Viability Dye eFluor 780 (Thermo Fisher) diluted 1:4000 in PBS. Cells were centrifuged and stained at 4° C. in 100 μl FACS buffer for 30 minutes containing FcR Blocking Reagent (Miltenyi Biotec), anti-CD20 and Alexa Fluor 647 conjugated CD22 binding antibodies, which were labeled using Molecular Probes Alexa Fluor 647 Protein Labeling kit (Molecular Probes) according to manufacturer's protocol. Cells were centrifuged and washed twice in 200 μl FACS buffer and fixed in 100 μl 0.5% paraformaldehyde. Cells were analyzed on Attune NxT Flow Cytometer (Thermo Fisher), with subsequent data analysis by Flowjo 10.7 (Treestar). Dead cells were excluded by gating on the eFluor 780-negative population. CD20+ cells were gated to identify B cells and median fluorescent intensity for CD22 was determined.

[3] = biological target: T1, human CD22 (d1 to d7 domain according …); assay: SPR; mAb supernatant captured on protein A chip, human CD22 injected
Procedure: Binding of humanized anti-CD22 antibodies to human CD22 was measured by surface plasmon resonance (SPR). For assessment of binding by SPR, biotinylated protein A (15 μg/mL) was immobilized to the surface of an NLC chip. 30 μL of mAb supernatant was added to 150 μL of PBS-T and captured over the protein A surface. Serial dilutions of human CD22-gly (300 nM, 3× dilution) were injected over the mAb-coated chips, and binding kinetics were determined. Chips were regenerated using 4:1 v/v of Pierce IgG elution butter/4M NaCl.

[4] = biological target: T1, human CD22 (d1 to d7 domain according …); assay: SPR; purified naked mAb captured on protein A chip, human CD22 injected
Procedure: To assess if CpG conjugation affects the binding of respective humanized anti-CD22 to human CD22, SPR assay was carried out. […] Briefly, biotinylated protein A (15 μg/mL) was immobilized to the surface of an NLC chip. 30 nM of purified naked mAb or CpG conjugated mAb solution in PBS-T was used for capture over the protein A surface. Serial dilutions of human CD22 (300 nM, 3× dilution) were injected over the mAb-coated chips, and binding kinetics were determined. Chips were regenerated using 4:1 v/v of Pierce IgG elution butter/4M NaCl.

[5] = biological target: T3, cynomolgus monkey CD22 on B cells of cynomolgus PBMCs (cynomolgus monkey); assay: flow cytometry; Alexa Fluor 647-labelled antibody on CD20+ B cells of cynomolgus PBMCs
T3 construct: whole, on cells; also called cynomolgus CD22; Cyno CD22
Procedure: as §1

[6] = biological target: T2, human CD22 on B cells of human PBMCs; assay: flow cytometry; Alexa Fluor 647-labelled antibody, human PBMCs
Procedure: as §1
(§2) The fold increase in binding was determined by calculating the ratio of CD22 median fluorescent intensity on CD20⁺ over CD20⁻ cells.

[7] = biological target: T3, cynomolgus monkey CD22 on B cells of …; assay: flow cytometry; Alexa Fluor 647-labelled antibody, cynomolgus PBMCs
Procedure: as §1, §2

Binder | Kd [1] | CD22 Median Fluorescent Intensity on CD20+ cells [2] | Kd [3] | Kd [4] | CD22 Median Fluorescent Intensity on CD20+ cells [5] | CD22: CD20+/CD20- (ratio of median fluorescent intensity) [6] | koff [3] | kon [3] | CD22: CD20+/CD20- (ratio of median fluorescent intensity) [7]
B1 | 0.3 nM | 1460 | 5.2 nM | 0.263 nM | 1420 | – | – | – | –
B2 | 30 nM | 1630 | 30 nM | – | 588 | 26.7 fold | 0.0084 s⁻¹ | 280000 M⁻¹ s⁻¹ | 6.7 fold
B3 | 0.9 nM | 1520 | 0.937 nM | – | 1170 | 23.9 fold | 0.000156 s⁻¹ | 167000 M⁻¹ s⁻¹ | 12.6 fold
B4 | 6 nM | 1490 | 5.94 nM | – | 1400 | 23 fold | 0.0016 s⁻¹ | 269000 M⁻¹ s⁻¹ | 10.8 fold
B5 | 0.7 nM | 1560 | 0.655 nM | 0.922 nM | 1370 | – | – | – | –
B6 | 1.3 nM | 1530 | 1.34 nM | – | 1270 | 26.2 fold | 0.000289 s⁻¹ | 215000 M⁻¹ s⁻¹ | 14.7 fold
B7 | 10 nM | 1320 | 10.2 nM | – | 236 | 20.9 fold | 0.00207 s⁻¹ | 203000 M⁻¹ s⁻¹ | 2.6 fold
